This assay has as its target ACE2-Fc (soluble human ACE2 fused to human IgG Fc) (human) (UniProt Q9BYF1). The experiment in a line: BLI. A general note: BLI is a label-free optical method that tracks binding on a fibre tip over time.

ACE2-Fc (soluble human ACE2 fused to human IgG Fc) (human), sequence (Q9BYF1 18-738): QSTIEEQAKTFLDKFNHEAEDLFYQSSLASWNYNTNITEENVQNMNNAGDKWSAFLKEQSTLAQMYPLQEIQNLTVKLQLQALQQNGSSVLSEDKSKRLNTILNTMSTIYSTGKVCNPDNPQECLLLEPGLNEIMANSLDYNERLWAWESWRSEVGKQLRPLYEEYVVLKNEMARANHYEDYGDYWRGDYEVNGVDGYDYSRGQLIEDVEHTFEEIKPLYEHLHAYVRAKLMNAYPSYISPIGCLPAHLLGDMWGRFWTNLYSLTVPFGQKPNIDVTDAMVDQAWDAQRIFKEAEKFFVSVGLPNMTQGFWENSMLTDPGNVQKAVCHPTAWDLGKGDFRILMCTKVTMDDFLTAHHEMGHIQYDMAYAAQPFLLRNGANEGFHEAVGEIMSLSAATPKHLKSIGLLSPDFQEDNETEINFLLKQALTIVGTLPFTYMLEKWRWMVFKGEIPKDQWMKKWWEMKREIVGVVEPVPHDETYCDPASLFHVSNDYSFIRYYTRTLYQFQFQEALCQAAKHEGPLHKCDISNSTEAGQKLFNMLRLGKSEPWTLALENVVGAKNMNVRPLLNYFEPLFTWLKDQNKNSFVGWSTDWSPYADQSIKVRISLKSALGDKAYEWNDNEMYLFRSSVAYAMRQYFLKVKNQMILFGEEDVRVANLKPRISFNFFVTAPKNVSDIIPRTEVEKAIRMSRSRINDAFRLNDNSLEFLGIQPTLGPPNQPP

“wild-type SARS-CoV-1 S-Trimer (from UniProt P59594 14-1193) (domain or fragment)”: the dissociation constant (Kd) (commonly the constant that tells how readily two partners part at equilibrium) was found to be 1.2 nM.
